In publication PMC3879712 (Cell Research, 2013):

Assays:
[1] = target: MLKL in membrane fraction (chemically cross-linked) (UniProt Q9D2Y4); assay: cross-linking
[2] = target: ND-HBD*-3×HA (mouse | not stated) (UniProt Q9D2Y4); assay: non-reducing SDS-PAGE with immunoblot
[3] = target: ND-HBD*-GFP-Flag (mouse | not stated) (UniProt Q9D2Y4); assay: SiMPull
[4] = target: the molecule itself; assay: non-reducing SDS-PAGE with immunoblot

## MLKL in membrane fraction (chemically cross-linked) (from UniProt Q9D2Y4 1-472) (natural protein)
[1]
  stoichiometry N: > 4

## ND-HBD*-3×HA (from UniProt Q9D2Y4-2 1-190)
[2]
  stoichiometry N: 4

## ND-HBD*-GFP-Flag (from UniProt Q9D2Y4-2 1-190)
[3]
  stoichiometry N: < 4

B1: endogenous MLKL of L929 cells (natural protein, mouse (endogenous in L929), UniProt Q9D2Y4-2 1-464, looked up)
chain: MDKLGQIIKLGQLIYEQCEKMKYCRKQCQRLGNRVHGLLQPLQRLQAQGKKNLPDDITAALGRFDEVLKEANQQIEKFSKKSHIWKFVSVGNDKILFHEVNEKLRDVWEELLLLLQVYHWNTVSDVSQPASWQQEDRQDAEEDGNENMKVILMQLQISVEEINKTLKQCSLKPTQEIPQDLQIKEIPKEHLGPPWTKLKTSKMSTIYRGEYHRSPVTIKVFNNPQAESVGIVRFTFNDEIKTMKKFDSPNILRIFGICIDQTVKPPEFSIVMEYCELGTLRELLDREKDLTMSVRSLLVLRAARGLYRLHHSETLHRNISSSSFLVAGGYQVKLAGFELSKTQNSISRTAKSTKAERSSSTIYVSPERLKNPFCLYDIKAEIYSFGIVLWEIATGKIPFEGCDSKKIRELVAEDKKQEPVGQDCPELLREIINECRAHEPSQRPSVDGILERLSAVEESTDKKV
[4]
  stoichiometry N: 4
